From patent US20220257704A1, “COMBINATION OF CHEMOTHERAPY WITH RECOMBINANT S. ROLFSII LECTIN” (Unichem Laboratories Ltd, priority 2018, published 2022)
Values joined by “and” are separate entries in the source; they are usually repeats but may differ in a detail not shown here. Equal entries are not always repeated.

Columns and labels:
Assay in all cases: MTT cytotoxicity assay, 48 h, alone and in combination (IC50 and Combination Index)
Format in all cases: cell-based
[1] = tested on: MDA-MB-231 cell line; conditions: in combination with Paclitaxel; paired with Paclitaxel conc. of the same table row
Description: The cell were kept in contact with the recombinant lectin of SEQ ID NO: 1 and the chemotherapy agent for 48 h and the cytotoxic effect (percentage cytotoxicity) was measured. The cytotoxic effect was determined by well-known colorimetric MTT assay (Mossman, T. 1983 Rapid colorimetric assay for cellular growth and survival: application to proliferation and cytotoxicity assays Journal of Immunological Methods, volume 65, pages 55-63) for assessing cell metabolic activity.
Based on percentage cytotoxicity data, IC50 values were determined using the software GraphPad Prism version 4.01.
Combination Index (CI) values were determined for each drug concentration combination. The CI values were calculated based on the IC50 values using the formula as given in below.
A study was performed to determine the effect of the concentration of the recombinant lectin represented by SEQ ID NO: 1 on the IC50 of Paclitaxel for cytotoxicity in MDA-MB-231 cells. Conversely the effect of the concentration of Paclitaxel on the IC50 of the recombinant lectin represented by SEQ ID NO: 1.
Similarly another study was performed for Carboplatin in combination with the recombinant lectin of SEQ ID NO: 1.
In a further study, MDA-MB-231 cells were treated with Paclitaxel (0.001 nM-10 nM) in combination with SEQ ID NO: 1(2.5 μg/mL-80 μg/mL) for 48 h. Similarly another set of cells were treated with Carboplatin (10 μM-1000 μM) in combination with SEQ ID NO: 1 (2.5 μg/mL-80 μg/mL).

[2] = tested on: HT-29 cell line
[3] = tested on: KB cell line
Description: A study was performed to determine the effect of the concentration of the recombinant lectin represented by SEQ ID NO: 1 on the IC50 of5-FU for cytotoxicity in KB cells.
Similarly another study was performed for Cisplatin in combination with the recombinant lectin of SEQ ID NO: 1.
Similarly another set of cells were treated with Cisplatin(0.1 μM to 1.5 μM)in combination with SEQ ID NO: 1(5.0 μg/mL-90 μg/mL).

[4] = tested on: PA-1 cell line
Description: In a further study, PA-1 cells were treated with Cisplatin(0.01 μM-5 μM) in combination with SEQ ID NO: 1(1 μg/mL-20 μg/mL) for 48 h. Similarly another set of cells were treated with Paclitaxel (0.01 nM-5 nM) in combination with SEQ ID NO: 1 (1 μg/mL-20 μg/mL).

B1: SEQ ID NO: 1: recombinant lectin protein, variant of the S. rolfsii lectin amino acid sequence (reported as Rec-2 in WO 2010/095143) (protein)
chain: TYKITVRVYQTNPDAFFHPVEKTVWKYANGGTWTITDDQHVLTMGGSGTSGTLRFHADNGESFTATFGVHNYKRWCDIVTNLAADETGMVINQQYYSQKNREEARERQLSNYQVKNAKGRNFQIVYTEAEGNDLHANLIIG
- Conc. of SEQ ID NO: 1 showing synergistic effect [1]: 20 to 80 µg/mL and 10 µg/mL
- IC50 of SEQ ID NO: 1 ([2]; 5-FU 0 μM): 25.470 µg/mL
- IC50 of SEQ ID NO: 1 ([2]; 5-FU 5 μM): 22.990 µg/mL
- IC50 of SEQ ID NO: 1 ([2]; 5-FU 10 μM): 6.374 µg/mL
- IC50 of SEQ ID NO: 1 ([2]; 5-FU 50 μM): 1.667 µg/mL
- IC50 of SEQ ID NO: 1 ([2]; 5-FU 100 μM): 1.387 µg/mL
- IC50 of SEQ ID NO: 1 ([2]; 5-FU 150 μM): 1.216 µg/mL
- IC50 of SEQ ID NO: 1 ([2]; 5-FU 200 μM): 1.334 µg/mL
- IC50 of SEQ ID NO: 1 ([2]; Irinotecan 0 μM): 18.320 µg/mL
- IC50 of SEQ ID NO: 1 ([2]; Irinotecan 0.1 μM): 73.480 µg/mL
- IC50 of SEQ ID NO: 1 ([2]; Irinotecan 1 μM): 36.280 µg/mL
- IC50 of SEQ ID NO: 1 ([2]; Irinotecan 5 μM): 23.520 µg/mL
- IC50 of SEQ ID NO: 1 ([2]; Irinotecan 10 μM): 9.995 µg/mL
- IC50 of SEQ ID NO: 1 ([2]; Irinotecan 25 μM): 8.258 µg/mL
- IC50 of SEQ ID NO: 1 ([2]; Irinotecan 50 μM): 1.395 µg/mL
- Conc. of SEQ ID NO: 1 showing synergistic effect ([2]; in combination with Irinotecan, paired with Irinotecan conc. of the same table row): 40 to 80 µg/mL and 20 µg/mL
- IC50 of SEQ ID NO: 1 ([3]; 5-FU 0 μM): 17.3800 µg/mL
- IC50 of SEQ ID NO: 1 ([3]; 5-FU 0.01 μM): 0.5800 µg/mL
- IC50 of SEQ ID NO: 1 ([3]; 5-FU 0.1 μM): 0.9080 µg/mL
- IC50 of SEQ ID NO: 1 ([3]; 5-FU 0.5 μM): 0.1141 µg/mL
- IC50 of SEQ ID NO: 1 ([3]; 5-FU 1 μM): 0.0555 µg/mL
- IC50 of SEQ ID NO: 1 ([3]; 5-FU 5 μM): 0.0871 µg/mL
- IC50 of SEQ ID NO: 1 ([3]; 5-FU […]): 0.5010 µg/mL
- IC50 of SEQ ID NO: 1 ([3]; Cisplatin 0 μM): 38.110 µg/mL
- IC50 of SEQ ID NO: 1 ([3]; Cisplatin 0.1 μM): 21.190 µg/mL
- IC50 of SEQ ID NO: 1 ([3]; Cisplatin 0.5 μM): 2.694 µg/mL
- IC50 of SEQ ID NO: 1 ([3]; Cisplatin 0.75 μM): 0.597 µg/mL
- IC50 of SEQ ID NO: 1 ([3]; Cisplatin 1.0 μM): 0.316 µg/mL
- IC50 of SEQ ID NO: 1 ([3]; Cisplatin 1.5 μM): 0.303 µg/mL
- IC50 of SEQ ID NO: 1 ([3]; Cisplatin […]): 11.240 µg/mL
- Conc. of SEQ ID NO: 1 showing synergistic effect ([3]; in combination with 5-FU, paired with 5-FU conc. of the same table row): 5 to 90 µg/mL
- Conc. of SEQ ID NO: 1 showing synergistic effect ([3]; in combination with Cisplatin, paired with Cisplatin conc. of the same table row): 10 to 90 µg/mL and 5 µg/mL
- IC50 of SEQ ID NO: 1 ([4]; Cisplatin 0 μM): 12.070 µg/mL
- IC50 of SEQ ID NO: 1 ([4]; Cisplatin 0.01 μM): 8.520 µg/mL
- IC50 of SEQ ID NO: 1 ([4]; Cisplatin 0.1 μM): 6.033 µg/mL
- IC50 of SEQ ID NO: 1 ([4]; Cisplatin 0.5 μM): 0.912 µg/mL
- IC50 of SEQ ID NO: 1 ([4]; Cisplatin 1 μM): 0.321 µg/mL
- IC50 of SEQ ID NO: 1 ([4]; Cisplatin 5 μM): 0.0036 µg/mL
- IC50 of SEQ ID NO: 1 ([4]; Cisplatin […]): 4.455 µg/mL
- IC50 of SEQ ID NO: 1 ([4]; Paclitaxel 0 nM): 8.822 µg/mL
- IC50 of SEQ ID NO: 1 ([4]; Paclitaxel 0.01 nM): 5.794 µg/mL
- IC50 of SEQ ID NO: 1 ([4]; Paclitaxel 0.1 nM): 6.545 µg/mL
- IC50 of SEQ ID NO: 1 ([4]; Paclitaxel 0.5 nM): 3.917 µg/mL
- IC50 of SEQ ID NO: 1 ([4]; Paclitaxel 1 nM): 3.031 µg/mL
- IC50 of SEQ ID NO: 1 ([4]; Paclitaxel 5 nM): 0.709 µg/mL
- IC50 of SEQ ID NO: 1 ([4]; Paclitaxel […]): 4.893 µg/mL
- Conc. of SEQ ID NO: 1 showing synergistic effect ([4]; in combination with Paclitaxel, paired with Paclitaxel conc. of the same table row): 1 to 20 µg/mL
